From a protein production outcome set (Wang et al. 2014) come the findings set out here.

The data set can be described thus: label from the status in PepcDB records.
In the case of “MAPRQLAAADLAVGQVVAQREIRLDAQAFAQFAALTGDAHPIHYDAGYVQRQGLRAPIAHGLLLVAISALGATPLSAQLHDAMVAMVGVEAVFMRPVYVDETVQCVYRVAQIEHVAKGRSKTTIAVSIHTTDAPPDAARQAHCVVHLTFLLKTHLQGLEHHHHHH”, the protein production entry was “failed”.
As for “MAQFYSAKRRTTTRQIITVSVNDLDSFGQGVARHNGKTLFIPGLLPQENAEVTVTEDKKQYARAKVVRRLSDSPERETPRCPHFGVCGGCQQQHASVDLQQRSKSAALARLMKHEVSEVIADVPWGYRRRARLSLNYLPKTQQLQMGFRKAGSSDIVDVKQCPILVPQLEALLPKVRACLGSLQAMRHLGHVELVQATSGTLMILRHTAPLSSADREKLECFSHSEGLDLYLAPDSEILETVSGEMPWYDSNGLRLTFSPRDFIQVNAGVNQKMVARALEWLDVEPEDRVLDLFCGMGNFTLPLATQAASVVGVEGVPALVEKGQQNARLNGLQNVTFYHENLEEDVTKQPWAKNGFDKVLLDPARAGAAGVMQQIIKLEPIRIVYVSCNPATLARDSEALLKAGYTIARLAMLDMFPHTGHLESMVLFSRVK”, the entry is “not failed”; as for “MAQHTVYFPDAFLTQMREAMPSTLSFDDFLAACQRPLRRSIRVNTLKISVADFLQLTAPYGWTLTPIPWCEEGFWIERDNEDALPLGSTAEHLSGLFYIQEASSMLPVAALFADGNAPQRVMDVAAAPGSKTTQISARMNNEGAILANEFSASRVKVLHANISRCGISNVALTHFDGRVFGAAVPEMFDAILLDAPCSGEGVVRKDPDALKNWSPESNQEIAATQRELIDSAFHALRPGGTLVYSTCTLNQEENEAVCLWLKETYPDAVEFLPLGDLFPGANKALTEEGFLHVFPQIYDCEGFFVARLRKTQAIPALPAPKYKVGNFPFSPVKDREAGQIRQAATGVGLNWDENLRLWQRDKELWLFPVGIEALIGKVRFSRLGIKLAETHNKGYRWQHEAVIALASPDNMNAFELTPQEAEEWYRGRDVYPQAAPVADDVLVTFQHQPIGLAKRIGSRLKNSYPRELVRDGKLFTGNA”, “not failed”; as for “MAQINFEGLRELHDCVNYLLHHCPKTRESLSQQGQEKWTEQVSEASLRMLDICNVSKDVMTLVKHSLQDLQLTLRGNESSDVNEKIAAYNRYKNKLKKETLKCLNCLKNMKGNEGRVAMPIEQNLLFVTEVLKEVRRVVVTMVESLFSLGCIPWLEKRSSKGSLSSIFSIRSSYLLDDEWDETAVQSATTRLEAAEITVVELEIELESIFRRLIQTRVSLLNILTN”, “failed”.
In the case of “MAQKLEAKGGEMGDVWDDGVYENVRKVYVGQAQYGIAFVKFEYVNGSQVVVGDEHGKKTELGVEEFEIDADDYIVYVEGYREKVNDMTSEMITFLSIKTFKGKTSHPIEKRPGVKFVLHGGKIVGFHGRSTDVLHSLGAYVSLSSTIKLLGKWIKVEQKGEGPGLRCSHGIAQVGNKIYSFGGEFTPNQPIDKHLYVFDLETRTWSISPATGDVPHLSCLGVRMVSVGSTLYVFGGRDASRQYNGFYSFDTTTNEWKLLTPVEEGPTPRSFHSMAADEENVYVFGGVSATARLNTLDSYNIVDKKWFHCSTPGDSLTARGGAGLEVVQGKVWVVYGFNGCEVDDVHYYDPVQDKWTQVETFGVRPSERSVFASAAIGKHIVIFGGEIAMDPLAHVGPGQLTDGTFALDTETLQWERLDKFGGEEETPSSRGWTASTTATIDGKKGLVMHGGKAPTNDRFDDLFFYGIDSA”, the protein production entry is recorded as “not failed”.
Then “MAQKMTGALVFDERTDRYDIRFDLNSYYGGLHCGECFDVFVRGKWKPTRIEYGDNWYLVGIRAEDLNGLRVRILEHHHHHH”, with “not failed”; and “MAQKTLLIITDGIGYRKDSDHNAFFHAKKPTYDLMFKTLPYSLIDTHGLSVGLPKGQMGNSEVGHMCIGAGRVLYQDLVKISLSLQNDELKNNPAFLNTIQKSPVVHLMGLMSDGGVHSHIEHFIALALECEKSHKKVCLHLITDGRDVAPKSALTYLKQMQNICNESIQIATISGRFYAMDRDKRFERIELAYHSLMGLNHTPLSPSEYIQSQYDKNITDEFIMPACFKNYCGMQDDESFIFINFRNDRAREIVSALGQKQFSGFKRQVFKKLHIATMTPYDNTFPYPVLFPKESVQNTLAEVVSQHNLTQSHIAETEKYAHVTFFINGGVETPFKNENRVLIQSPKVTTYDLKPEMSAKEVTLAVLEQMKLGTDLIIVNFANGDMVGHTGNFEASVKAVEAVDACLGEILSLAKKLDYAMLLTSDHGNCERMKDENQNPLTNHTAGSVYCFVLGDGVKSIKNGALNNIASSVLKLMGLKAPATMDEPLF”, with “failed”; and “MAQPDREARPQFSHPTRQILTMLIVIGLSGFGVFVAMPRVLPVFQANPYLNGFILLVFIIGVLACFWQVVQLIGSVRWIEDFAAGQEREDTTPPSMLAPLASLLRSRAARMQISSSSTRSILDSVAERIEEEREITRYITNVLIYLGLLGTFFGLATTIPAVVDTIRSLNPQEGEEGLAVFNRLMTGLEAQLGGMGTAFGSSLLGLAGSLIVGLLELFTGHGQNRFYRELEEWLSTITRVGFSSGEEGHSESGAIAGVIDTMVEQMDALHAMFAASEEGRAEISGKLGALVETIAEMNQRQAETEDVTAALDRVAAGQETLIDFLREQGAHDGIDAESRMRLRSIDVQMLRILEEISAGRQESMAELRKDIELLAKALSVPRRPLRGVTRDEG”, with “failed”.
Take “MAQPLFSLDGQSLITPQSVSNKFPSPHNHNETDRLRIAEAEFAVVINIAVQRFAAGKNLPDAVRWLIGQLHDIRQKFGAAVWQKIIPIIQAHPSATILQQCPFTRWSFEKPRGYSGDAGLIDFIYGHPAVAEEVARSTPLGLNIFEYTINAPGPVAVRERRDTLTRYVDETAVRTGSDTEILAIAAGHLREAEASKALAEGRLKRWVALDQDPESIGSISSQFHGTSVQPINGSVRGLLARKHQIGTFDLIYAAGLYDYLTDKVAIRLTQICMEMLKPGGVFLFANFSDEMADDGYMESYMNWELLQRSEADMWRITNAGATQNAVDKTVWFGANRNIIYSTIRKRS”: the protein production result is given as “failed”.
Then “MAQQFKDYFSEKSDVYRSYRPGYPTELFAWLAGLPARRDAALDCGCGTGQASVALAEHFARVYAVDPSAGQIKSATPHKRVEYRVAPAEETGLPDASVDLVIAAQALHWFDFSRFYAEVRRVARGGAVFAAFTYGLLAIDDEIDRIIGRFYRDVIGPYWPPERAHVDAGYRTLPFPFAEIETPTFAMKAEWDLGHLMGYFETWSAVKEYRRLRGDDPLELVAGDLATAWGDPALVRQVSWPLVLRAGRIE”, with “failed”.
Then “MAQQNAEHIADWRGQSGERWAAYQARLDAMMAPFGQAAIEAAAPTTGERVLDVGCGAGASSRDLAARVGAEGHVLGVDISEPLIERARALAPQDMSVVFRVTDASRAELPDGAFDILFSRFGVMFFNDPTGAFAHMRRALKPGGRAAFVCWRGVTENDWMRLPMGAMKGILPSMTPPGPEAPGPFSFGDQERVERILTKAGFTDIAIEPFDASVSFGEGATRDAALDDAVNMTLEVGPLSRVLADQPDDIRDRASVAVRAALSGCPGERSVMINGATWIVTARNPAS”, with “failed”; and “MAQQQGMDSALFERRLRPVYDNLEVGNNRKALQESEKLLRKHPNLLCARALKGLSLLRLGRYDESHGCLQTVAEEKPTDDSTLQVLSFCYREMEQLDKIVELYQHAVKQNPGNEELLAHLFISHVRVEDYKAQQAVALQLYKAQPKNAYYFWSVISVVFQGIRGPESALPEKRKIYLGLAQRMVDKHIKEGKMETEQEAFLYLHILKLQNKYQEAWEFLTGELCAKLYPGAPVSMKFELLKELGNWRELNELLQQLLDADRDRWDFYKEYIQSSFELLKLTPQGVENGDKDSLARCQEFLQRIIDSSERKKRGPYLARLELHQRMRAEQLPAEKLIGDFDEMVIEYFRLFGDKSCCTHDIALFLPSISMNQRQALASKLLLESGVTSTSLPKNKEQLQKHLCALQISRMCGSHMDLPADHLLAFYTALKLHYEHGRTTFGKKLLATEMGPSDAYALLAANVMYDLSRRENKSDHLFEALCLLQYVLRNSTSNFHVKLLSLKIYHLFGCQVGAQEMYEYLDIKQIQLDSMGYVHCQLLALGGRFSGNRNVYDATLKFFTNSYKERLEYIALTYRFCTFSKMEEFMNFKERLTNSLQYVACSVEAQICDLVSCYGNITQNLSAYVAMSIEPAEDRIAWHELSDNRDLGAIIRWDPLHEVDAAEERRESFDQEVEVLQVRSLMLRLFASFIDLYHGAGLKDSPAGAETATLELLRESWTGLFQRLRVMNYKPLAQKFLVNLLPTRLHLLLDMPYERFFDDLAQLVLDLQSGSAKLAEQCKRVGDNVIATMELCVQTINESNESNGIDGLWKRRGQQQKVAASLEMLSLYAFLLSVLNDKLQVSSKTKTKKKPVENKVDGPQPISEKERSQMLQELMRQLKHKFEACDTAIRSWKAPVLPRDLSSFMSDMSLKPEVEATLIGDVSATFKDSHELMVTELRNLLKDKIRMVAK”, with “failed”; and “MAQQTPLYEQHTLCGARMVDFHGWMMPLHYGSQIDEHHAVRTDAGMFDVSHMTIVDLRGSRTREFLRYLLANDVAKLTKSGKALYSGMLNASGGVIDDLIVYYFTEDFFRLVVNSATREKDLSWITQHAEPFGIEITVRDDLSMIAVQGPNAQAKAATLFNDAQRQAVEGMKPFFGVQAGDLFIATTGYTGEAGYEIALPNEKAADFWRALVEAGVKPCGLGARDTLRLEAGMNLYGQEMDETISPLAANMGWTIAWEPADRDFIGREALEVQREHGTEKLVGLVMTEKGVLRNELPVRFTDAQGNQHEGIITSGTFSPTLGYSIALARVPEGIGETAIVQIRNREMPVKVTKPVFVRNGKAVA”, with “not failed”.
For the sequence “MAQRSILVGQIWHEGHSFNPILTREKDFLFLRGEAVLEEARASSTALSGIVKTAEALGYRCVPSISARARPGGAIEQKVFDNIVDEFVQAARMQDFDAICLDLHGATLAEHTLDTEGYLLSRLREVVGNDIMISLALDLHAYLTPQMVEQATIITSFRTTPHADIEETGVRAMTLLDSLSNETRPPRAIYSLIPFLTRGNDETWSGPLAEIGAAADRWRARSDVVDLSIFNVHPFLDVPGYGQVVLAYDNGSGAAIDACRDLSDMLWKARDEFQEQLMSVDKALEIARTSRQLLALGDQGDRVMGAGPGDSPEIARVALEHFPGLKVAVPVYDPQAVRTAREAGENATVRMAVGGAFTHSVAPLERDWTVRKLCRARFTNIGPYMAGTEADFGDAAVLTCDAVTVIVTTMAPNVHDPAFYEAVGVPLASQQAVVARAANHYKLSFADIARTITVDTPGLTAFKPHQFPFTQARPFYPLDIVQWSFAPLECNKVG”, the protein production entry is on record as “not failed”.
Then “MAQTQGTRRKVCYYYDGDVGNYYYGQGHPMKPHRIRMTHNLLLNYGLYRKMEIYRPHKANAEEMTKYHSDDYIKFLRSIRPDNMSEYSKQMQRFNVGEDCPVFDGLFEFCQLSTGGSVASAVKLNKQQTDIAVNWAGGLHHAKKSEASGFCYVNDIVLAILELLKYHQRVLYIDIDIHHGDGVEEAFYTTDRVMTVSFHKYGEYFPGTGDLRDIGAGKGKYYAVNYPLRDGIDDESYEAIFKPVMSKVMEMFQPSAVVLQCGSDSLSGDRLGCFNLTIKGHAKCVEFVKSFNLPMLMLGGGGYTIRNVARCWTYETAVALDTEIPNELPYNDYFEYFGPDFKLHISPSNMTNQNTNEYLEKIKQRLFENLRMLPH”, with “failed”; and “MAQVPAGKNRSGQLSKQTGDAWENQARRWLEGQGLRFIAANARERGGEIDLIMRDGTVTVFIEVRYRRSARYGDAAASVTPQKQQRLLKAARLWLCRQ”, with “failed”.
